Laboratory results from the supplement of paper PMC5998384.

How the values were obtained:
HeLa Kyoto [1] = assay: solubility change mitosis vs G1/S (difference of NP-40 vs SDS log2 ratios) (log2 ratio difference); higher = more soluble in mitosis
HeLa Kyoto [2] = assay: thermal stability score vs G1/S (z-score of summed log2 fold changes over temperatures); higher = more thermally stable than in G1/S
HeLa Kyoto [3] = assay: solubility in G1/S (NP-40 vs SDS abundance) (log2 ratio); higher = more soluble; settings: cell cycle stage: G1/S
HeLa Kyoto [4] = assay: melting temperature (median over replicates), in situ; higher = more thermally stable
[5] = cell cycle stage: early G1 (4.5 h after nocodazole release)
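Throughout, for melting temperature (median over replicates), in situ: HeLa Kyoto cells synchronized by double thymidine or nocodazole block, proteins quantified by TMT10plex mass spectrometry, three independent biological replicates.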
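Throughout, for solubility change mitosis vs G1/S (difference of NP-40 vs SDS log2 ratios): synchronized HeLa Kyoto cells (double thymidine block for G1/S, nocodazole release for mitosis), protein amounts in NP-40 versus SDS lysates quantified by mass spectrometry, three biological replicates.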
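Throughout, for solubility in G1/S (NP-40 vs SDS abundance): HeLa Kyoto cells arrested at G1/S by double thymidine block, proteins quantified by TMT10plex mass spectrometry in mild NP-40 versus SDS extracts, three biological replicates.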
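Throughout, for thermal stability score vs G1/S (z-score of summed log2 fold changes over temperatures): synchronized HeLa Kyoto cells, proteins quantified by TMT10plex mass spectrometry, three biological replicates, mitosis taken 0.5 h after nocodazole release, G1/S directly after double thymidine block.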

Sequence | solubility change mitosis (log2) (HeLa Kyoto [1]) | thermal stability score (HeLa Kyoto [2]; [5]) | thermal stability score (HeLa Kyoto [2]; cell cycle stage: mitosis) | solubility in G1/S (log2) (HeLa Kyoto [3]) | melting temperature (HeLa Kyoto [4]; cell cycle stage: G1/S) [°C] | melting temperature (HeLa Kyoto [4]; cell cycle stage: mitosis) [°C]
MAQRKNAKSSGNSSSSGSGSGSTSAGSSSPGARRETKHGGHKNGRKGGLSGTSFFTWFMVIALLGVWTSVAVVWFDLVDYEEVLGKLGIYDADGDGDFDVDDAKVLLGLKERSTSEPAVPPEEAEPHTEPEEQVPVEAEPQNIEDEAKEQIQSLLHEMVHAEHVEGEDLQQEDGPTGEPQQEDDEFLMATDVDDRFETLEPEVSHEETEHSYHVEETVSQDCNQDMEEMMSEQENPDSSEPVVEDERLHHDTDDVTYQVYEEQAVYEPLENEGIEITEVTAPPEDNPVEDSQVIVEEVSIFPVEEQQEVPPETNRKTDDPEQKAKVKKKKPKLLNKFDKTIKAELDAAEKLRKRGKIEEAVNAFKELVRKYPQSPRARYGKAQCEDDLAEKRRSNEVLRGAIETYQEVASLPDVPADLLKLSLKRRSDRQQFLGHMRGSLLTLQRLVQLFPNDTSLKNDLGVGYLLIGDNDNAKKVYEEVLSVTPNDGFAKVHYGFILKAQNKIAESIPYLKEGIESGDPGTDDGRFYFHLGDAMQRVGNKEAYKWYELGHKRGHFASVWQRSLYNVNGLKAQPWWTPKETGYTELVKSLERNWKLIRDEGLAVMDKAKGLFLPEDENLREKGDWSQFTLWQQGRRNENACKGAPKTCTLLEKFPETTGCRRGQIKYSIMHPGTHVWPHTGPTNCRLRMHLGLVIPKEGCKIRCANETKTWEEGKVLIFDDSFEHEVWQDASSFRLIFIVDVWHPELTPQQRRSLPAI [ASPH] | 0.0282 | 1.63 | 2.03 | -0.00862 | 54.2 | 53.5
MAQSRDGGNPFAEPSELDNPFQDPAVIQHRPSRQYATLDVYNPFETREPPPAYEPPAPAPLPPPSAPSLQPSRKLSPTEPKNYGSYSTQASAAAATAELLKKQEELNRKAEELDRRERELQHAALGGTATRQNNWPPLPSFCPVQPCFFQDISMEIPQEFQKTVSTMYYLWMCSTLALLLNFLACLASFCVETNNGAGFGLSILWVLLFTPCSFVCWYRPMYKAFRSDSSFNFFVFFFIFFVQDVLFVLQAIGIPGWGFSGWISALVVPKGNTAVSVLMLLVALLFTGIAVLGIVMLKRIHSLYRRTGASFQKAQQEFAAGVFSNPAVRTAAANAAAGAAENAFRAP [SCAMP3] | -0.173 | -1.12 | 0.091 | 0.19 | 58.2 | 57.8
MAQTPAFDKPKVELHVHLDGSIKPETILYYGRRRGIALPANTAEGLLNVIGMDKPLTLPDFLAKFDYYMPAIAGCREAIKRIAYEFVEMKAKEGVVYVEVRYSPHLLANSKVEPIPWNQAEGDLTPDEVVALVGQGLQEGERDFGVKARSILCCMRHQPNWSPKVVELCKKYQQQTVVAIDLAGDETIPGSSLLPGHVQAYQEAVKSGIHRTVHAGEVGSAEVVKEAVDILKTERLGHGYHTLEDQALYNRLRQENMHFEICPWSSYLTGAWKPDTEHAVIRLKNDQANYSLNTDDPLIFKSTLDTDYQMTKRDMGFTEEEFKRLNINAAKSSFLPEDEKRELLDLLYKAYGMPPSASAGQNL [ADA] | -0.0197 | -1.89 | -1.32 | 0.319 | 57.9 | 59.2
MAQVAMSTLPVEDEESSESRMVVTFLMSALESMCKELAKSKAEVACIAVYETDVFVVGTERGRAFVNTRKDFQKDFVKYCVEEEEKAAEMHKMKSTTQANRMSVDAVEIETLRKTVEDYFCFCYGKALGKSTVVPVPYEKMLRDQSAVVVQGLPEGVAFKHPENYDLATLKWILENKAGISFIIKRPFLEPKKHVGGRVMVTDADRSILSPGGSCGPIKVKTEPTEDSGISLEMAAVTVKEESEDPDYYQYNIQAGPSETDDVDEKQPLSKPLQGSHHSSEGNEGTEMEVPAEDSTQHVPSETSEDPEVEVTIEDDDYSPPSKRPKANELPQPPVPEPANAGKRKVREFNFEKWNARITDLRKQVEELFERKYAQAIKAKGPVTIPYPLFQSHVEDLYVEGLPEGIPFRRPSTYGIPRLERILLAKERIRFVIKKHELLNSTREDLQLDKPASGVKEEWYARITKLRKMVDQLFCKKFAEALGSTEAKAVPYQKFEAHPNDLYVEGLPENIPFRSPSWYGIPRLEKIIQVGNRIKFVIKRPELLTHSTTEVTQPRTNTPVKEDWNVRITKLRKQVEEIFNLKFAQALGLTEAVKVPYPVFESNPEFLYVEGLPEGIPFRSPTWFGIPRLERIVRGSNKIKFVVKKPELVISYLPPGMASKINTKALQSPKRPRSPGSNSKVPEIEVTVEGPNNNNPQTSAVRTPTQTNGSNVPFKPRGREFSFEAWNAKITDLKQKVENLFNEKCGEALGLKQAVKVPFALFESFPEDFYVEGLPEGVPFRRPSTFGIPRLEKILRNKAKIKFIIKKPEMFETAIKESTSSKSPPRKINSSPNVNTTASGVEDLNIIQVTIPDDDNERLSKVEKARQLREQVNDLFSRKFGEAIGMGFPVKVPYRKITINPGCVVVDGMPPGVSFKAPSYLEISSMRRILDSAEFIKFTVIRPFPGLVINNQLVDQSESEGPVIQESAEPSQLEVPATEEIKETDGSSQIKQEPDPTW [GTF2I] | 0.0472 | 6.54 | 16.3 | 0.0586 | 45.4 | 48.5
MARAAALLPSRSPPTPLLWPLLLLLLLETGAQDVRVQVLPEVRGQLGGTVELPCHLLPPVPGLYISLVTWQRPDAPANHQNVAAFHPKMGPSFPSPKPGSERLSFVSAKQSTGQDTEAELQDATLALHGLTVEDEGNYTCEFATFPKGSVRGMTWLRVIAKPKNQAEAQKVTFSQDPTTVALCISKEGRPPARISWLSSLDWEAKETQVSGTLAGTVTVTSRFTLVPSGRADGVTVTCKVEHESFEEPALIPVTLSVRYPPEVSISGYDDNWYLGRTDATLSCDVRSNPEPTGYDWSTTSGTFPTSAVAQGSQLVIHAVDSLFNTTFVCTVTNAVGMGRAEQVIFVRETPNTAGAGATGGIIGGIIAAIIATAVAATGILICRQQRKEQTLQGAEEDEDLEGPPSYKPPTPKAKLEAQEMPSQLFTLGASEHSPLKTPYFDAGASCTEQEMPRYHELPTLEERSGPLHPGATSLGSPIPVPPGPPAVEDVSLDLEDEEGEEEEEYLDKINPIYDALSYSSPSDSYQGKGFVMSRAMYV [PVRL2] | 0.0111 | -2.1 | -3.87 | 0.108 | 56.9 | 55.4
MARAMAAAWPLLLVALLVLSWPPPGTGDVVVQAPTQVPGFLGDSVTLPCYLQVPNMEVTHVSQLTWARHGESGSMAVFHQTQGPSYSESKRLEFVAARLGAELRNASLRMFGLRVEDEGNYTCLFVTFPQGSRSVDIWLRVLAKPQNTAEVQKVQLTGEPVPMARCVSTGGRPPAQITWHSDLGGMPNTSQVPGFLSGTVTVTSLWILVPSSQVDGKNVTCKVEHESFEKPQLLTVNLTVYYPPEVSISGYDNNWYLGQNEATLTCDARSNPEPTGYNWSTTMGPLPPFAVAQGAQLLIRPVDKPINTTLICNVTNALGARQAELTVQVKEGPPSEHSGISRNAIIFLVLGILVFLILLGIGIYFYWSKCSREVLWHCHLCPSSTEHASASANGHVSYSAVSRENSSSQDPQTEGTR [PVR] | 0.164 | -1.4 | -2.91 | 0.109 | 55 | 55
MARENGESSSSWKKQAEDIKKIFEFKETLGTGAFSEVVLAEEKATGKLFAVKCIPKKALKGKESSIENEIAVLRKIKHENIVALEDIYESPNHLYLVMQLVSGGELFDRIVEKGFYTEKDASTLIRQVLDAVYYLHRMGIVHRDLKPENLLYYSQDEESKIMISDFGLSKMEGKGDVMSTACGTPGYVAPEVLAQKPYSKAVDCWSIGVIAYILLCGYPPFYDENDSKLFEQILKAEYEFDSPYWDDISDSAKDFIRNLMEKDPNKRYTCEQAARHPWIAGDTALNKNIHESVSAQIRKNFAKSKWRQAFNATAVVRHMRKLHLGSSLDSSNASVSSSLSLASQKDCLAPSTLCSFISSSSGVSGVGAERRPRPTTVTAVHSGSK [CAMK1D] | -0.0784 | 0.0756 | 0.252 | 0.0619 | 49.8 | 50.3
MARFALTVVRHGETRFNKEKIIQGQGVDEPLSETGFKQAAAAGIFLNNVKFTHAFSSDLMRTKQTMHGILERSKFCKDMTVKYDSRLRERKYGVVEGKALSELRAMAKAAREECPVFTPPGGETLDQVKMRGIDFFEFLCQLILKEADQKEQFSQGSPSNCLETSLAEIFPLGKNHSSKVNSDSGIPGLAASVLVVSHGAYMRSLFDYFLTDLKCSLPATLSRSELMSVTPNTGMSLFIINFEEGREVKPTVQCICMNLQDHLNGLTETR [TIGAR] | -0.0797 | -0.092 | 0.286 | 0.348 | 50.2 | 50.3
MARHVFLTGPPGVGKTTLIHKASEVLKSSGVPVDGFYTEEVRQGGRRIGFDVVTLSGTRGPLSRVGLEPPPGKRECRVGQYVVDLTSFEQLALPVLRNADCSSGPGQRVCVIDEIGKMELFSQLFIQAVRQTLSTPGTIILGTIPVPKGKPLALVEEIRNRKDVKVFNVTKENRNHLLPDIVTCVQSSRK [NTPCR] | 0.0287 | 1.23 | 0.656 | 0.569 | 52.6 | 53.4
MARKLSVILILTFALSVTNPLHELKAAAFPQTTEKISPNWESGINVDLAISTRQYHLQQLFYRYGENNSLSVEGFRKLLQNIGIDKIKRIHIHHDHDHHSDHEHHSDHERHSDHEHHSEHEHHSDHDHHSHHNHAASGKNKRKALCPDHDSDSSGKDPRNSQGKGAHRPEHASGRRNVKDSVSASEVTSTVYNTVSEGTHFLETIETPRPGKLFPKDVSSSTPPSVTSKSRVSRLAGRKTNESVSEPRKGFMYSRNTNENPQECFNASKLLTSHGMGIQVPLNATEFNYLCPAIINQIDARSCLIHTSEKKAEIPPKTYSLQIAWVGGFIAISIISFLSLLGVILVPLMNRVFFKFLLSFLVALAVGTLSGDAFLHLLPHSHASHHHSHSHEEPAMEMKRGPLFSHLSSQNIEESAYFDSTWKGLTALGGLYFMFLVEHVLTLIKQFKDKKKKNQKKPENDDDVEIKKQLSKYESQLSTNEEKVDTDDRTEGYLRADSQEPSHFDSQQPAVLEEEEVMIAHAHPQEVYNEYVPRGCKNKCHSHFHDTLGQSDDLIHHHHDYHHILHHHHHQNHHPHSHSQRYSREELKDAGVATLAWMVIMGDGLHNFSDGLAIGAAFTEGLSSGLSTSVAVFCHELPHELGDFAVLLKAGMTVKQAVLYNALSAMLAYLGMATGIFIGHYAENVSMWIFALTAGLFMYVALVDMVPEMLHNDASDHGCSRWGYFFLQNAGMLLGFGIMLLISIFEHKIVFRINF [SLC39A6] | -0.0474 | 0.915 | -0.208 | -0.161 |  | 57.4
MARMNRPAPVEVTYKNMRFLITHNPTNATLNKFIEELKKYGVTTIVRVCEATYDTTLVEKEGIHVLDWPFDDGAPPSNQIVDDWLSLVKIKFREEPGCCIAVHCVAGLGRAPVLVALALIEGGMKYEDAVQFIRQKRRGAFNSKQLLYLEKYRPKMRLRFKDSNGHRNNCCIQ [PTP4A1] | -0.0406 | 0.98 | -0.349 | -0.131 | 52.9 | 53.8
